Consider three molecules from US20160235871A1, “Spect Radionuclide-labeled Trimeric Cycle RGD Peptide, Preparation Method Thereof and Imaging Method Thereof” (Bailing Cloud Biomedical Technologies Innovation, priority 2015, published 2016).

Where two headings read alike, the source gives them in different places.

Data set [1] in a line: Biodistribution in U87MG glioma nude mice. The settings on record: female, athymic nu/nu nude, mouse, in vivo, iv, 3 uCi, total radioactivity. It is filed as in vivo. How it is done: (§1) U87MG cells are purchased from US ATCC (Manassas, Va.). Cell culture conditions: […] […] 7 random U87MG glioma nude mice (20-25 g) are selected. […] After 60 minutes, a great amount of sodium pentobarbital is injected for executing the mice. Blood samples are collected from the mouse hearts. Tumor, normal organs (brain, eyes, heart, spleen, lung, liver, kidney, muscle and intestine) and tumor tissues are collected and washed by saline. Then they are dried by absorbent tissue, weighed by Perkin Elmer Wizard 1480 γ counter (Shelton, Conn.). The organ intake is measured by the percentage of the injection dose per gram of the tissue (% ID/g).

For data set [2], the system named is U87MG glioma. Kind of data set: Biodistribution in U87MG glioma nude mice. It is filed as in vivo. As for the experimental part: as §1
For data set [3] the following is noted: normal mice, research period over 2 hours. As for the experimental part:
X. Normal mice (n=2) are selected for the metabolism research of the stability of ^99mmTc-4P-RGD3 in vivo, Each animal is injected with about 10 MBq of ^99mTc-4P-RGD3. The bladders are squeezed manually after 30 minutes and 120 minutes, respectively. The urine samples are collected and are mixed with 50% aqueous acetonitrile with the same volume. The mixture is centrifilged under 8,000 rpm. The supernatant is collected and is filtered by a 0.20 μm Millex-LG filter. The filtrate is analyzed by the HPLC. The fecal samples 120 minutes after the injection is collected, and is treated for homogenization by 20% of aqueous acetonitrile. The obtained mixture is rotated for about 5 minutes and then is centrifuged under 8,000 rpm. The supernatant is collected and is filtered by a 0.20 μm. Millex-LG filter. The filtrate is analyzed by the HPLC.

In data set [4] the test system is U87MG glioma. The following applies: SPECT/CT.
Method: The preparation of ^99mTc-4P-RGD3 for the research of biodistribution includes incorporating ^99mTc-4P-RGD3 solution into physiological saline until the activity concentration is 10-30 mCi/mL. The preparation of ^99mTc-4P-RGD3 for tumor imaging includes incorporating ^99mTc-4P-RGD3 solution into physiological saline until the activity concentration is about 10 mCi/mL. During the experiments, each of the animal is injected with about 0.1 mL of the solution.
Biodistribution and tumor imaging are performed under the guidance of US National Institutes of Health animal experiments (1985, NIH 86-23, Laboratory Animal Care). U87MG cells are purchased from US ATCC (Manassas, Va.). Cell culture conditions: DMEM medium (non-essential amino acids sodium pyruvate) containing 10% of fetal bovine serum and 1% of penicillin and streptomycin. The cells are cultured under 37° C. with 5% of CO2. When the cells are grown to 90% confluence, they grow exponentially. The cells can be grown to a single layer, multiple layers or split layers. Female athymic nu/nu nude mice aged 4-5 weeks are used for the experiments, 5×10^6 of tumor cells are incorporated into 0.1 mL of physiological saline and are planted to shoulder subcutaneous of the mice under sterile conditions. About 4 weeks after planting, the tumor cells grow to 0.1-0.5 g for the use of biodistribution and imaging.

As for `N=C(N)NCCC[C@@H]1NC(=O)[C@H](CCCCNC(=O)CCOCCOCCOCCOCCNC(=O)CC[C@H](NC(=O)CCOCCOCCOCCOCCNC(=O)c2ccc(NN)nc2)C(=O)NCCOCCOCCOCCOCCC(=O)NCCCC[C@@H]2NC(=O)[C@@H](Cc3ccccc3)NC(=O)[C@H](CC(=O)O)NC(=O)CNC(=O)[C@H](CCCNC(=N)N)NC2=O)NC(=O)[C@@H](Cc2ccccc2)NC(=O)[C@H](CC(=O)O)NC(=O)CNC1=O` [^99mTc-3P-RGD2, metal not drawn], the tissue uptake at 1 h in data set [1] (Organ intake, Blood) is 0.47 ± 0.06 %ID/g; in data set [1] (Organ intake, Brain) it was 0.17 ± 0.03 %ID/g; in data set [1] (Organ intake, Eye), 1.4 ± 0.13 %ID/g; in data set [1] (Organ intake, Heart), 1.67 ± 0.15 %ID/g; in data set [1] (Organ intake, Kidney), 12.3 ± 1.09 %ID/g; in data set [1] (Organ intake, Liver) it was 2.92 ± 0.77 %ID/g. In addition, the tissue uptake at 1 h in data set [1] (Organ intake, Lung) worked out at 4.25 ± 0.63 %ID/g; in data set [1] (Organ intake, Muscle), 1.12 ± 0.15 %ID/g; in data set [1] (Organ intake, Spleen), 3.11 ± 0.18 %ID/g; in data set [1] (Tumor intake), 7.24 ± 0.95 %ID/g. For the same molecule, the Tumor intake in the data set on U87MG glioma [2] (mouse, in vivo) turned out to be 7.24±0.95 % ID/g.
As to `N=C(N)NCCC[C@@H]1NC(=O)[C@H](CCCCNC(=O)CCOCCOCCOCCOCCNC(=O)CCC(CCC(=O)NCCOCCOCCOCCOCCC(=O)NCCCC[C@@H]2NC(=O)[C@@H](Cc3ccccc3)NC(=O)[C@H](CC(=O)O)NC(=O)CNC(=O)[C@H](CCCNC(=N)N)NC2=O)(CCC(=O)NCCOCCOCCOCCOCCC(=O)NCCCC[C@@H]2NC(=O)[C@@H](Cc3ccccc3)NC(=O)[C@H](CC(=O)O)NC(=O)CNC(=O)[C@H](CCCNC(=N)N)NC2=O)NC(=O)CCOCCOCCOCCOCCNC(=O)c2ccc(NN)nc2)NC(=O)[C@@H](Cc2ccccc2)NC(=O)[C@H](CC(=O)O)NC(=O)CNC1=O` (stereo partly drawn) [^99mTc-4P-RGD3, metal not drawn], the “Metabolites detected in the urine samples and the fecal samples (radio-HPLC)” value in data set [3] was “no metabolites”. Also, the “Radioactive accumulation in animal abdomen (especially in intestines)” value in the data set on U87MG glioma [4] (compared with ^99mTc-3P-RGD2 and ^99mTc-Galacto-RGD2) is reported as “the lowest”. In addition, the “Tumor intake based on the SPECT quantization” value with U87MG glioma [4] (glioma nude mice, about 37 MBq injected) is recorded as “about 7.34 ID/g”. For the same molecule, the tissue uptake at 1 h is 0.53 ± 0.14 %ID/g in data set [1] (U87MG glioma nude mice, 60 minutes after tail vein injection, read-out: Organ intake, Blood); 0.14 ± 0.01 %ID/g in data set [1] (U87MG glioma nude mice, 60 minutes after tail vein injection, read-out: Organ intake, Brain); 0.46 ± 0.23 %ID/g in data set [1] (U87MG glioma nude mice, 60 minutes after tail vein injection, read-out: Organ intake, Eye); 0.56 ± 0.19 %ID/g in data set [1] (U87MG glioma nude mice, 60 minutes after tail vein injection, read-out: Organ intake, Heart); 9.1 ± 2.31 %ID/g in data set [1] (U87MG glioma nude mice, 60 minutes after tail vein injection, read-out: Organ intake, Kidney); 1.92 ± 0.62 %ID/g in data set [1] (U87MG glioma nude mice, 60 minutes after tail vein injection, read-out: Organ intake, Liver). Besides, the tissue uptake at 1 h in data set [1] (U87MG glioma nude mice, 60 minutes after tail vein injection, read-out: Organ intake, Lung) came out at 1.14 ± 0.41 %ID/g; in data set [1] (U87MG glioma nude mice, 60 minutes after tail vein injection, read-out: Organ intake, Muscle), 0.35 ± 0.17 %ID/g; in data set [1] (U87MG glioma nude mice, 60 minutes after tail vein injection, read-out: Organ intake, Small Intestine) it was 1.65 ± 0.37 %ID/g; in data set [1] (U87MG glioma nude mice, 60 minutes after tail vein injection, read-out: Organ intake, Spleen) it was 1.33 ± 0.52 %ID/g; in data set [1] (U87MG glioma nude mice, 60 minutes after tail vein injection, read-out: Tumor intake) it was 7.34 ± 1.66 %ID/g. Moreover, the “Intake background in organs of the whole body (intestine, liver, lung, muscle, spleen, kidney)” value in the data set on U87MG glioma [2] (60 minutes after injection, compared with ^99mTc-3P-RGD2 and ^99mTc-Galacto-RGD2) was “significantly decreased”. For the same molecule, the Tumor intake in the data set on U87MG glioma [2] (U87MG glioma nude mice, 60 minutes after tail vein injection) came to 7.34±1.66 % ID/g.
For the molecule `N=C(N)NCCC[C@@H]1NC(=O)[C@H](CCCCNC(=O)[C@H]2O[C@@H](CNC(=O)COCCOCCn3cc(CNC(=O)CC[C@H](NC(=O)c4ccc(NN)nc4)C(=O)NCc4cn(CCOCCOCC(=O)NC[C@@H]5O[C@H](C(=O)NCCCC[C@@H]6NC(=O)[C@@H](Cc7ccccc7)NC(=O)[C@H](CC(=O)O)NC(=O)CNC(=O)[C@H](CCCNC(=N)N)NC6=O)[C@H](O)[C@H](O)[C@H]5O)nn4)nn3)[C@H](O)[C@@H](O)[C@H]2O)NC(=O)[C@@H](Cc2ccccc2)NC(=O)[C@H](CC(=O)O)NC(=O)CNC1=O` [^99mTc-Galacto-RGD2, metal not drawn], the tissue uptake at 1 h was 0.56 ± 0.25 %ID/g in data set [1] (Organ intake, Blood); 0.35 ± 0.28 %ID/g in data set [1] (Organ intake, Brain); 0.81 ± 0.39 %ID/g in data set [1] (Organ intake, Eye); 1.27 ± 0.61 %ID/g in data set [1] (Organ intake, Heart); 11.7 ± 4.06 %ID/g in data set [1] (Organ intake, Kidney); 3.07 ± 2.14 %ID/g in data set [1] (Organ intake, Liver). For the same molecule, the tissue uptake at 1 h in data set [1] (Organ intake, Lung) came to 2.93 ± 0.94 %ID/g; in data set [1] (Organ intake, Muscle), 0.88 ± 0.34 %ID/g; in data set [1] (Organ intake, Small Intestine), 5.45 ± 1.47 %ID/g; in data set [1] (Organ intake, Spleen) it was 1.99 ± 0.71 %ID/g; in data set [1] (Tumor intake), 6.86 ± 1.33 %ID/g. This molecule also came in with a Tumor intake with U87MG glioma [2] (mouse, in vivo) of 6.86±1.33 % ID/g.
